The results in this text go back to paper PMC8962422.

In this experiment the target is CM19XA (UniProt P15391). In words: SEC; ENrich SEC 650 column on an NGC system, running buffer PBS, peak positions compared with BioRad size exclusion standards; after Ni-NTA purification. On the technique in general: In gel filtration, larger molecules generally elute earlier.

As for “CM19XA (from UniProt P15391 20-291; Q9Y624 28-238)”, the stoichiometry N (as a rule, the number of molecules, sites or subunits per partner or assembly) came to 2.
